Reference: the NTF2 design screens of Basanta et al. (2020)

experiment: protease stability score; higher = more stable; yeast display proteolysis, trypsin and chymotrypsin;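 further: relative to predicted unfolded state with 0 unfolded-like and 1 meaning tenfold more protease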

Sequence	protease stability score
SEDEKISEEALRRWVHHNRTGNEQDYVRMADPDTKIEIGDKEFHGREEFVKLARDYGFKHYHLKDNDVIGDKIRIDGIVEFNGQRWEMILYFVKYDGRWSIKSIHIK	1.45
DELKRDADHAVELLHRVIHTGDEDTFVELIDPHVRLDFNGRELIGWEEVRKLMRDLGWEQIHYEIEDIKVYNGQVEIHSRVNINGRTHQSHYHIEKVNGRWILRHVEYE	1.37
DEDTRLAEDELQLWVEHVETGDEDTLFELLDPNVRLHIGDKELHGREAWVQWLVEARVEHVHIRDIKVVDGKVLITGRIIFRVGDKRVDTDHHMIIEKINGRWVLHEIHFH	2.07
AREEEIVEEMARLMRHLWTTGDEEKIDEMLDPDVRVEWRVNGVHLENHGRDQFIRILRRFSDEWRLRSLHDETFRIQGDKVEVDSRFDVQVNGQRDILETEFHLVVVDGRIRHVEIIIK	1.6
DELEHDAREYFRILEESIRTGDEDLFRKLADPNVRLMIDGKNWIGWESYHEELRQYDHRHVDMRIDHIEVVDGRVHIDGRIEVTITIDGVEHRLNHKLRVEIEKIDGRWHMKFILVE	1.67
DELEHWAHIILEEFTRLYTTGDEETFNHLADPDTRLFFNGREFIGREKFIDAWRHLRYKEIRLRDHQVDVQGDKMRMILHMRVNSNINGREVEQDVHLEILTKKIDGRWRLKEVHFQTH	2.39
SEDEKNHKIAMRILRRVIETGDERELEELADPDVRIVIGDKFHVGRDVWHEWAHRFDHTHHIEVKDHRHFDGRITLDTEVDVHIDGRRSRMRVIIIARKVDGVWFLHELRIH	1.31
DELDSILEEFARVFMQNLETGDEDSSRHYLDPHYRVELDIGDWTIQMHGWRSDHIRRRYLGADHERILIRDYRVYNGRIRVEGQMDITVNGKRVTYHTEFILHVVNGKATRVSMKFE	0.707
SEEEDEIRKMLEEVLKNWRTGNEERIYELADPNTRVEIDGREHHGRHVVAHLIKEWRIHDFILRRVDVQGNKVIIHGELEGEFDGKRTNLHTNLVLVKIDGRWVIESLHYV	1.41
HEIHELLKRVVDMLRTLWETGDEETWNSLADPNTKFVIGDKEVVGMEEITRIFLHERERADHMKFEVRRIRTVGDKADSHGHLRLDIGNKHVTHEIDLHVRVINGRIKQVELRIH	1.33
SEEEEEADRLEEHWVKSLLTGDEEELAKNADPNTRLDIDGKIVHGMEHFIRFFSEIFKRVDHTEIRIRDSKFDGDKIHNRVEILIRFNGRTIRIDVRIIMRKVDGRWIHESMHIE	1.9
DEKHEFVRRRIEEWLEALRTGDEDTLHRLADPNVKMNINGVERHGRESMLSLFEEFGVNHFHIRDVKIQGEKSFIDGEIRYGDKIHRVQMEIQVIDGVLESHKLRVH	1.13
QEYDEHIEELWRDFVHAMITGDEDRLSELMDPDTRILVGDKHLVGWDRALRFLHEHIREIRPTDFKLRDIRFFDGRIHVDTEMRLVVNGQEVHKKTHLIVYKYDGRWHIEAIIEH	2.24
TEEDRLVDKITKELLTALTTGDEEIFLELLDPNARVEYNGKEMHGREFYRKIFEEEEKKIKNLRVEIHDYDAQGDKIHVDQRRHFNGRTYDYRLHYLVVNGKVKSVFVRIL	0.831
RDEEEYAHRVLELWRFILETGDEDTLYELADPNVRFKFLQGNKEIHRHGRERMVEEIRTRREELGVKHIHLEHVEVWNGVVHLRVVVHFNGKELRSRIIIVVIDGVIKEIEIREE	1.04
SEEEREDEEMFRKLWEAYKTGDEKTLSELVDPNARLRFENREFVGRESIKEFYRRIREKFKGIRIEDVHLRDRKEQGEFIHIDIEINRFVGDKYENVKVEIVLLKFDGRWIIHEIRIK	2.69
SEDQEMSDHASSLLLHTMETGDFRLLHEFLDPNTRVSVNGRDVIGRDETVRHMIEHIKILGVSKVEARLHDVKLINGVAENDVEIDFNGRRIRVWWFVEKINGRWVITHMRVL	1.47
DEEHEWMHIMMELLLRAFETGDPDLFEHLADPNTRLQIGDKTIHGRTKVSTWLHREIRRADHLEIRLREYDYQGDKLEMKTELIIQQGDKQVQLETRVIIIKINGRWFLESIEIN	1.23
TEEEEYLRKLTKDFIEAFLTGNWKEVARLLDPHTRLHVGEFEIHGREEMMKFMIELITRAGIKHQHIKSFETRIINGVVFLHVHMIVIVNGRNIERRLHVLFVKIDGRWTIEEVSEEHE	1.46
SDEEHIVQVALKNYIKAVMTGDEHLFNELMDPNTRNDINGVIYHGMEEWVKSVEELGIERFTIHEVYEHDFRVYNGQVDIHVRVDREVNGRRINDEVEIVAYKVNGRWQLRSLIFR	1.39
